Assay results: article doi:10.1101/2024.12.30.630799

Molecular target: BE-eRNP adenine base editor: bipartite NLS, TadA (ABE8.20-m variant), 32-amino acid glycine/serine-rich linker, S. pyogenes nCas9 (D10A, C80A), bipartite NLS, complexed with sgRNA (Escherichia coli | Streptococcus pyogenes)
Assay: not stated; oligomeric state of the purified eRNPs (protein combined with sgRNA); the method stands only in Supp Figures 1-3

Substance: BE-eRNP adenine base editor: bipartite NLS, TadA (ABE8.20-m variant), 32-amino acid glycine/serine-rich linker, S. pyogenes nCas9 (D10A, C80A), bipartite NLS, complexed with sgRNA (enzyme)
- stoichiometry N: 2
